According to publication PMC10948360, “Tropomyosin 1-I/C coordinates kinesin-1 and dynein motors during oskar mRNA transport” (Nature Structural & Molecular Biology, 2024):

T1: Khc motor domain (Khc 1-365) (Drosophila, UniProt P17210 1-365)
T1 construct: Kinesin heavy chain (Khc), Drosophila, amino acids 1-365 (motor domain); GST removal with 3C protease is stated for NMR; for the pull-down the prey is printed as Khc 1–365 without GST; source: E. coli BL21-CodonPlus(DE3)-RIL, purified (GSTrap, SEC)
T1 sequence (looked up): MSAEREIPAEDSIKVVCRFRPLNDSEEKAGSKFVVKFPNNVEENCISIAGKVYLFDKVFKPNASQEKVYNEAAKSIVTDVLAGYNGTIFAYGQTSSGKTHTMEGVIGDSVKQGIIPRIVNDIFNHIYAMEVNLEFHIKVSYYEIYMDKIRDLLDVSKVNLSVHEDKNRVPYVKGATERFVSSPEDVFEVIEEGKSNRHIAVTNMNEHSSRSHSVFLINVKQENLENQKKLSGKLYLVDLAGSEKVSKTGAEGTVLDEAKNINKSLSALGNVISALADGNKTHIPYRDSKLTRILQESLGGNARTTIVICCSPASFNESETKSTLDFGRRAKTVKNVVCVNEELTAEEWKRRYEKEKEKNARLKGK

B1: Khc tail (Khc 855-975) (domain or fragment)
chain: not shown
notes: 15N-labeled (13C,15N for assignment) in the NMR experiments; used unlabeled in microtubule pelleting; also called tail domain
B2: GST-Khc 855-975 (domain or fragment)
chain: not shown

What was measured:
[1] = biological target: T1, Khc motor domain (Khc 1-365); experiment: NMR titration; 1H-15N HSQC of 50 µM 15N-labeled Khc 855–975 at 298 K, 25 mM NaPO4 pH 6.5, 150 mM NaCl; unlabeled partners added, with or without U10 RNA; conditions: both partners purified
[2] = biological target: T1, Khc motor domain (Khc 1-365); experiment: pull-down; GST-Khc 855–975 (5 or 10 µM) as bait on glutathione Sepharose, 50 µM Khc 1–365 as prey, Tm1 1–335 at 5 to 15 µM; GF150 buffer, 4 °C; conditions: both partners purified

| Binder | binding result [1] | binding result [2] |
| --- | --- | --- |
| B1 | binds |  |
| B2 |  | binds |
